The values that follow are results of earlier work, collected in publication PMC3433420.

Where two headings read alike, the source gives them in different places.

Holding throughout (conditions): cited from earlier work
Data set [1] has as its target SYK-NC (Homo sapiens) (UniProt P43405).
Data set [2] shares this target. The source holds these as a separate data set.
Data set [3] deals with GRB7 (Homo sapiens) (UniProt Q14451).
Data set [4] has the same target. The source holds these as a separate data set.
Data set [5] deals with PIK3R1-N (Homo sapiens) (UniProt P27986).
Chain of PIK3R1-N (Homo sapiens) (P27986 328-723): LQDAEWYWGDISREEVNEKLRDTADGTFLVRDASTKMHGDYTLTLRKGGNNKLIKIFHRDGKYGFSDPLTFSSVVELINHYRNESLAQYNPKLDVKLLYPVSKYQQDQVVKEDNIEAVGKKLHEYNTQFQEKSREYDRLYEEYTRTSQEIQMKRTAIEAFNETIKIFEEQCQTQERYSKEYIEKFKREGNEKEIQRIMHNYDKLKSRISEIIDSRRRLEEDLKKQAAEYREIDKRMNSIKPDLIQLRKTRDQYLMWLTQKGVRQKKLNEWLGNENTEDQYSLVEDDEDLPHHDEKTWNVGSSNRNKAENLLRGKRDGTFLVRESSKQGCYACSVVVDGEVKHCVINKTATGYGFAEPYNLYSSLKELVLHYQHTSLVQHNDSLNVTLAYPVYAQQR
Data set [6] has the same target. The source holds these as a separate data set.
In data set [7] the target is BLK (Homo sapiens) (UniProt P51451).
Chain of BLK (Homo sapiens) (P51451 119-225): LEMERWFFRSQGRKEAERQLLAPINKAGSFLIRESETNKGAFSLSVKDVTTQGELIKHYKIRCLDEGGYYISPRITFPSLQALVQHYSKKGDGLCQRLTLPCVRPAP
Data set [8] has as its target ITK (Homo sapiens) (UniProt Q08881).
Data set [9] deals with ABL2 (Homo sapiens) (UniProt P42684).
Chain of ABL2 (Homo sapiens) (P42684 168-268): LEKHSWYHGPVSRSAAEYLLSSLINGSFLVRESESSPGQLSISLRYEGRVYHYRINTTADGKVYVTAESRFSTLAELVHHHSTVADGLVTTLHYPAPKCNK
Data set [10] deals with PLCG2-NC (Homo sapiens) (UniProt P16885).
Chain of PLCG2-NC (Homo sapiens) (P16885 527-740): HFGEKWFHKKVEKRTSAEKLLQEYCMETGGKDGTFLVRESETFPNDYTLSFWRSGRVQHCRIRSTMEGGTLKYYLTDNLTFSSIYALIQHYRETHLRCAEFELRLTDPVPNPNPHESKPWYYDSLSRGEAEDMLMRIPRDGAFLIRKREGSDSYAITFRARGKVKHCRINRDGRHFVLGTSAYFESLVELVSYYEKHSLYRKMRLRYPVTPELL
The target of data set [11] is PIK3R3-NC (Homo sapiens) (UniProt Q92569).
For data set [12] the target is unchanged. This is another data set of the same source.
Data set [13] has as its target LYN (Homo sapiens) (UniProt P07948).
In data set [14] the target is FGR (Homo sapiens) (UniProt P09769).
The target of data set [15] is RASA1-N (Homo sapiens) (UniProt P20936).
Chain of RASA1-N (Homo sapiens) (P20936 176-446): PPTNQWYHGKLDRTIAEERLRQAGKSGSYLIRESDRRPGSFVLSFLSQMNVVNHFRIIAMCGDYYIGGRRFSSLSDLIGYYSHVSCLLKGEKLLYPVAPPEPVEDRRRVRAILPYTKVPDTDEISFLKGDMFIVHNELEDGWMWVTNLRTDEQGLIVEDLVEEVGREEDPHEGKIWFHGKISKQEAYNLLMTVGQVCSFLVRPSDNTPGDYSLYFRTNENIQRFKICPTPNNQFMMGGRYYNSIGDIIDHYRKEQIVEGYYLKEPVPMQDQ
The target is the same in data set [16]. The source holds these as a separate data set.
In data set [17] the target is TENC1 (Homo sapiens) (UniProt Q63HR2).
Chain of TENC1 (Homo sapiens) (Q63HR2 1135-1252): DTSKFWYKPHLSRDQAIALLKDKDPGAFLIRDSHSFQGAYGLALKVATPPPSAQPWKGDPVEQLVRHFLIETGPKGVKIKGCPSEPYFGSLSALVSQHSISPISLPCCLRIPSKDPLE
Data set [18] shares this target. The source holds these as a separate data set.
Data set [19] has as its target PIK3R1-NC (Homo sapiens) (UniProt P27986).
For data set [20] the target is unchanged. The source holds these as a separate data set.
The target in data set [21] is ABL1 (Homo sapiens) (UniProt P00519).
Chain of ABL1 (Homo sapiens) (P00519 122-222): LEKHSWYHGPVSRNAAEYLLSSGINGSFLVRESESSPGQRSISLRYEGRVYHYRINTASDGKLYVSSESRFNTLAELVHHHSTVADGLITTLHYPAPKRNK
Data set [22] has as its target PIK3R3-N (Homo sapiens) (UniProt Q92569).
For data set [23] the target is unchanged. The source holds these as a separate data set.
Data set [24] concerns the target SRC (Homo sapiens) (UniProt P12931).
For data set [25], the target named is PIK3R2-NC (Homo sapiens) (UniProt O00459).
Chain of PIK3R2-NC (Homo sapiens) (O00459 325-721): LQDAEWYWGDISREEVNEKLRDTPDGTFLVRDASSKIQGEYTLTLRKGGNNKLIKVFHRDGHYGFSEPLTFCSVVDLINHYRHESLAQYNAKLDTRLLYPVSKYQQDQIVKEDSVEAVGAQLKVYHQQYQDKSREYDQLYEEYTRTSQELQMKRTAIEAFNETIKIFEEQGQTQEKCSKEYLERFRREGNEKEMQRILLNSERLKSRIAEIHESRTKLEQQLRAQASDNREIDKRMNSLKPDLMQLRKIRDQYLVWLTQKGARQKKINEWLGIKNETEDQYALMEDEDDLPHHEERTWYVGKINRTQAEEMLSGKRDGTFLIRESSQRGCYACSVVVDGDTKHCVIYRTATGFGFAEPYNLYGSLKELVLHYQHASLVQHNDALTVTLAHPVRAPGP
Data set [26] shares this target. The source holds these as a separate data set.
Data set [27] has as its target YES1 (Homo sapiens) (UniProt P07947).
Data set [28] has as its target PIK3R2-N (Homo sapiens) (UniProt O00459).
Data set [29] has the same target. The source holds these as a separate data set.
In data set [30] the target is SYK-C (Homo sapiens) (UniProt P43405).
Data set [31] addresses PIK3R1-N (Homo sapiens) (UniProt P27986). The source holds these as a separate data set.
The target of data set [32] is ITK (Homo sapiens) (UniProt Q08881). The source holds these as a separate data set.
Chain of ITK (Homo sapiens) (Q08881 234-343): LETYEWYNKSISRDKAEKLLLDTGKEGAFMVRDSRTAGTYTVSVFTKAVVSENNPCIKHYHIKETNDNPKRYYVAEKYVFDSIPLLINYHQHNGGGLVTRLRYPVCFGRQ
Data set [33] deals with ABL2 (Homo sapiens) (UniProt P42684). The source holds these as a separate data set.
For data set [34] the target is unchanged. This is another data set of the same source.
For data set [35], the target named is PIK3R3-NC (Homo sapiens) (UniProt Q92569). This is another data set of the same source.
Data set [36] shares this target. The source holds these as a separate data set.
Data set [37] deals with SHF (Homo sapiens) (UniProt Q7M4L6).
Chain of SHF (Homo sapiens) (Q7M4L6 318-423): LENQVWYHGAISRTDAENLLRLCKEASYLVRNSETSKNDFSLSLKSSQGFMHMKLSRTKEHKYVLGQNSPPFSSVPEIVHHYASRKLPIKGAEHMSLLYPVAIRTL
Data set [38] concerns the target PIK3R1-NC (Homo sapiens) (UniProt P27986). The source holds these as a separate data set.
For data set [39] the target is unchanged. This is another data set of the same source.
Data set [40] deals with PIK3R1-C (Homo sapiens) (UniProt P27986).
Chain of PIK3R1-C (Homo sapiens) (P27986 328-723): as the sequence (P27986 328-723) above
Data set [41] addresses PIK3R3-N (Homo sapiens) (UniProt Q92569). This is another data set of the same source.
For data set [42] the target is unchanged. The source holds these as a separate data set.
Data set [43] has as its target PIK3R2-NC (Homo sapiens) (UniProt O00459). This is another data set of the same source.
Data set [44] has as its target SHC1-PTB (Homo sapiens) (UniProt P29353).
The target of data set [45] is SHB (Homo sapiens) (UniProt Q15464).
Chain of SHB (Homo sapiens) (Q15464 405-509): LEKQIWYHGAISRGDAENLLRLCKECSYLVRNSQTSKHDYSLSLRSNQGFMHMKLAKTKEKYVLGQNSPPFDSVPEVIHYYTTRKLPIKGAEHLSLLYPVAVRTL
Data set [46] deals with PIK3R2-N (Homo sapiens) (UniProt O00459). The source holds these as a separate data set.
Chain of PIK3R2-N (Homo sapiens) (O00459 325-721): as the sequence (O00459 325-721) above
For data set [47] the target is unchanged. The source holds these as a separate data set.
In data set [48] the target is PIK3R3-C (Homo sapiens) (UniProt Q92569).

Chain of PIK3R1-NC (Homo sapiens) (P27986 328-723): as the sequence (P27986 328-723) above
Chain of GRB7 (Homo sapiens) (Q14451 426-532): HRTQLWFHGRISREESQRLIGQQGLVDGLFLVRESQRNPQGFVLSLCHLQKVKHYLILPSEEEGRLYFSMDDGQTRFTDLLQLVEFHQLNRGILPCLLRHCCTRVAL
Chain of SHC1-PTB (Homo sapiens) (P29353 483-583): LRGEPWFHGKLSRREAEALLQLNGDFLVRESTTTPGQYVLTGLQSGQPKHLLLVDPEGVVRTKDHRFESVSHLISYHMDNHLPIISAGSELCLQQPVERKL
Chain of LYN (Homo sapiens) (P07948 124-231): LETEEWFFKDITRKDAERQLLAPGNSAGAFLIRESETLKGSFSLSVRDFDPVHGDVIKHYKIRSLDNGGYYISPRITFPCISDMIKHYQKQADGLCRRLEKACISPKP
Chain of YES1 (Homo sapiens) (P07947 153-260): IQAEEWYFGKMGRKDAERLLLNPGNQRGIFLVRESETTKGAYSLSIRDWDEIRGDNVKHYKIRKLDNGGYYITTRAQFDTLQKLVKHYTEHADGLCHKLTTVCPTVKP

On to …pYEYMNRRR, for which the apparent Kd (screen) in [1] was 894 nM; in data set [2] it was 1260 nM; in [3] it was 125 nM; in data set [4], 99 nM; in data set [5], 347 nM; in [6], 674 nM. Also, the apparent Kd (screen) in [7] was 68 nM; in data set [8], 155 nM; in data set [9] it was 1110 nM; in data set [10], 614 nM; in data set [11], 256 nM; in data set [12] it was 499 nM. Also, the apparent Kd (screen) in [13] was 1070 nM; in [14], 709 nM; in [15], 516 nM; in data set [16], 929 nM; in data set [17], 1800 nM; in data set [18], 1630 nM. In addition, the apparent Kd (screen) is 254 nM in [19]; 499 nM in data set [20]; 1420 nM in [21]; 201 nM in [22]; 281 nM in data set [23]; 866 nM in [24]. Besides, the apparent Kd (screen) in [25] was 257 nM; in data set [26], 448 nM; in data set [27], 125 nM; in [28] it was 143 nM; in data set [29], 239 nM.
Turning to …pYMPMNQGN, the apparent Kd (screen) in data set [30] was 1180 nM; in data set [31], 566 nM; in data set [32] it was 1670 nM; in data set [33] it was 331 nM; in data set [34], 167 nM; in [35] it was 492 nM. Also, the apparent Kd (screen) in data set [36] is 50 nM; in data set [37], 1230 nM; in [38], 920 nM; in data set [39] it was 105 nM; in data set [40] it was 999 nM; in data set [41], 1320 nM. The apparent Kd (screen) in data set [42] is 999 nM; in [43], 88 nM; in data set [44], 2000 nM; in data set [45], 1370 nM; in data set [46], 893 nM; in [47], 999 nM. Moreover, the apparent Kd (screen) in data set [48] is 109 nM.
